According to paper PMC5811407 (Thrombosis research, 2017):

Experiments:
[1] = target: recombinant fibrinogen (Bβ1-66)2 fragment (human); test: ELISA
[2] = target: recombinant fibrin (β15-66)2 fragment (human); test: ELISA
human fibrin (human) = human fibrin (human) (UniProt P02679); test: ELISA
[3] = target: soluble form of human VLDL receptor (human) (UniProt P98155); test: SPR
[4] = target: soluble form of human VLDL receptor (human, UniProt P98155 28-797); test: ELISA

soluble form of human VLDL receptor (from UniProt P98155 28-797)
Kd [1]: 7.7 nM
Kd [2]: 5.9 nM
Kd (human fibrin (human)): 7.2 nM

recombinant fibrinogen (Bβ1-66)2 fragment (domain or fragment)
Kd [3]: 254 nM

B1: human receptor-associated protein (natural protein, UniProt P30533 35-357, looked up)
chain: YSREKNQPKPSPKRESGEEFRMEKLNQLWEKAQRLHLPPVRLAELHADLKIQERDELAWKKLKLDGLDEDGEKEARLIRNLNVILAKYGLDGKKDARQVTSNSLSGTQEDGLDDPRLEKLWHKAKTSGKFSGEELDKLWREFLHHKEKVHEYNVLLETLSRTEEIHENVISPSDLSDIKGSVLHSRHTELKEKLRSINQGLDRLRRVSHQGYSTEAEFEEPRVIDLWDLAQSANLTDKELEAFREELKHFEAKIEKHNHYQKQLEIAHEKLRHAESVGDGERVSRSREKHALLEGRTKELGYTVKKHLQDLSGRISRARHNEL
binding result [4]: binds
